# Assay results from patent US9687591B2, “Building stratified biomimetic tissues and organs using crosslinked ultrashort peptide hydrogel membranes” (Agency for Science, Technology and Research, priority 2010, dated 2017).
# “Also recorded” adds a separate entry of the source. Ends that are not written are not given here. Peptide text beside a SMILES is read from it.
# Legend:
# [1] = Kinetics of disulfide formation, oxidation by air (Ellman's assay); format: physicochemical; settings: 12 mM in water, capped tubes, room temperature, after 5 days
# Procedure: For oxidation by air, LK6C dissolved in water at 12 mM was left in capped micro-centrifuge tubes at room temperature. […] H2O2-assisted oxidation was much more efficient in the formation of disulfide bridges.
# (§1) For air oxidation, LK6C was dissolved in MilliQ water by vigorous vortexing for five minutes and dispensed into 20 μL aliquots. At appropriate time points, 180 μL of DTNB (Sigma, Singapore) working solution (4 mg/mL in 0.1M phosphate buffer pH 7.0) was mixed with the peptide solution for 15 minutes. Absorbance at 412 nm was then measured (InfiniteM200, Tecan, Switzerland). Using a calibration curve generated with L-cysteine (Sigma) as standard (R^2=0.999), the background-subtracted value was normalised to the reading at 0 hour to give the % of thiol remaining. For H2O2-assisted oxidation, LK6C was dissolved in water (HPLC grade, J. T. Baker, N.J., USA) containing 0.06% H2O2 (Merck, Sinagpore) and dispensed into aliquots. At appropriate time points, the aliquots were analysed using an Aquity® UPLC (Waters, USA) fitted with a single-quadrupole MS. Using a calibration curve generated with pure LK6C as standard (R^2=0.999), the area under the peak corresponding to LK6C monomer was normalised to that at 0 hour to give the % of thiol remaining.
# [2] = Kinetics of disulfide formation, H2O2-assisted oxidation (UPLC); format: physicochemical; settings: 12 mM in water containing 0.06% H2O2, after 1 day
# Procedure: Only ˜50% of thiols remained after 1 day. The R^2 value of the thiol calibration curve was 1.000.
# as §1
# [3] = system: skins of guinea pigs; assay: Direct contact Kligman maximization test (GLP, ISO 10993-10); format: in vivo; settings: GLP study by CRO Toxikon
# [4] = system: V79; assay: Direct contact V79 colony assay (GLP); format: cell-based; settings: GLP study by CRO Toxikon
# [5] = Water soak of casted gels (shape retention / degradation); format: physicochemical; settings: not oxidised, 24 hours of water soak
# Procedure: Peptide was dissolved in 200 μL of water+/−H2O2 and filled into custom-made hollow ring casts (diameter ˜1 cm). The ring ends were sealed with parafilm to minimise evaporation and the cast was kept at 25° C. for 22 hours before further manipulations.
# LK6 or LK6C gels were first casted and then soaked in water for various durations. […] These observations are also supported by rheological measurements (FIG. 28). Therefore, the strategy of disulfide crosslinking has increased the resistance of the gel to degradation and has made it possible to use the gel at a lower concentration compared to previous formulations. This, in turn, will translate into significant cost savings.
# [6] = Concentration needed for gelation; format: physicochemical
# Procedure: FIG. 18A illustrates the determination of a suitable gelation concentration with the LK6 control peptide sequence. A working concentration was established that was suitably low so as to save on material during testing but yet, capable of forming gels strong enough to be manipulated. LK6 gels were therefore casted at different concentrations and their stiffness was measured (average±s.d. of triplicates). As expected, G′ values increased with peptide concentration and it was determined that a working concentration of 12 mM afforded gels with sufficient mechanical integrity to withstand handling.
# The present invention as defined above offers significant improvements in material properties such as stiffness, elasticity and resistance of the gel to degradation compared to previous disclosures—ultra-small peptide-based and peptide/polymer-based hydrogels. Reactive chemical groups are also introduced to the peptide fibers which allow the facile in-situ chemical conjugation of biological signals. Furthermore, compared to previous formulations, less material is now needed for gelation (e.g. 10 mg/ml LK6C instead of 25 mg/ml for LK6), which translates into significant cost savings and higher water contents. This class of material is suitable for biomedical applications, for example but not limited to, three-dimensional cell culture, tissue engineering, sensing and drug and gene delivery.
# [7] = Oscillation rheology of cysteine-containing peptide gels (stiffness G', LVE limit); format: physicochemical
# Text: Oscillatory rheology was used to quantify the stiffness of IVKC gels formed in the presence of varying amount of H2O2 in PBS. Elastic modulus, G′, was plotted against angular frequency, ω (FIG. 45). As already mentioned in FIG. 41, the G′ value increased tremendously after crosslinking with 0.06% H2O2 in PBS. Further increasing the amount of H2O2 increased the G′ values even more. For instance, gels cross-linked completely with 0.2% H2O2 in PBS achieved a G′ value of nearly 1 MPa. This level of stiffness was not achieved before. Hereafter, IVKC gels will be prepared in the presence of 0.2% H2O2 in PBS. Data here was reported as average of 4 samples±standard deviation.
# Rheology: The rheological properties of casted gels were measured with an ARES-G2 (TA Instruments, USA) using the oscillation method. Frequency-sweep studies were performed with ω=0-100 rad/s at strain, γ=0.1%. The gel stiffness was represented by plotting G′ against ω. Amplitude-sweep studies were performed beforehand at 1 Hz with γ=0-100%. The LVE limit of the gel was defined as the value of γ when G′ first dropped below 90% of the average initial value.
# The rheological properties of casted gels were measured with an ARES-G2 (TA Instruments, USA) using the oscillation method. Frequency-sweep studies were performed with ω=0-100 rad/s at strain, γ=0.1%. The gel stiffness was represented by plotting G′ against ω. […]
# [8] = Extent of crosslinking of IVKC by UPLC; format: physicochemical; settings: 24 hours
# Procedure: (§2) The crosslinking density of IVKC could be further modulated with H2O2 content. Ultra performance liquid chromatography (UPLC) was used to study the extent of crosslinking in IVKC after oxidation with varying amount of H2O2 in PBS for 24 hours. […] At 0.2% H2O2 in PBS for instance, IVKC was 100% crosslinked and none of the monomers remained.
# as §2, with “can” for “could”, “be” for “be further”, “hours (FIG. 43). In the absence of H2O2, IVKC remained mostly as monomers (>96%).” for “hours.”, “cross-linked” for “crosslinked”
# The crosslinking density of Ac-IVKC was modulated by varying the concentration of H2O2 (0-0.2%). The amount of monomeric (retention time-2.40 mins) and dimeric (˜2.67 mins) species were then quantified with ultra-performance liquid chromatography (UPLC) after incubation in the various H2O2 concentration for 24 hours at room temp (FIG. 43).
# [9] = system: Human corneal endothelial cells (HCEC); assay: Biocompatibility of cross-linked IVKC gels, calcein staining; format: cell-based; settings: gels cross-linked with 0.2% H2O2 in PBS for 24 hours and purified
# Procedure: To test the biocompatibility of cross-linked IVKC gels, a sensitive primary cell type was seeded onto the gels. IVKC gels were cross-linked with 0.2% H2O2 in PBS for 24 hours and excess H2O2 was purified from the gel using a dialysis-inspired method (as described in WO 2014/116187).
# To test the biocompatibility of cross-linked IVKC gels, a sensitive primary cell type was seeded onto the gels. IVKC gels were cross-linked with 0.2% H2O2 in PBS for 24 hours and excess H2O2 was purified from the gel using a dialysis-inspired method reported previously, see e.g. WO 2014/116187. Human corneal endothelial cells (HCEC, a kind gift from Singapore Eye Research Institute) freshly derived from human donor corneas were then seeded onto the gel and maintained in culture.
compound,measurement,setting,value
"CC[C@H](C)[C@H](NC(=O)[C@H](CC(C)C)NC(C)=O)C(=O)N[C@H](C(=O)N[C@@H](C)C(=O)NCC(=O)N[C@@H](CCCCN)C(=O)N[C@@H](CS)C(=O)O)C(C)C [LK6C, LIVAGKC] (Ac-LIVAGKC-OH)",% of thiols remaining,[1],~80%
same,% of thiols remaining,[2],~50%
same,skin sensitization,[3],no sensitization
same,toxicity,[4],no significant toxicity
LIVAGK (L-form) [LK6],gel state after water soak,[5],did not survive; also recorded: completely degraded
same,concentration needed for gelation,[6],25000 µg/mL
Ac-IVKC,increase of stiffness after oxidative crosslinking,[7]; 0.06% H2O2 in PBS,close to two orders
same,"stiffness, elastic modulus G'",[7]; gels crosslinked completely with 0.2% H2O2 in PBS,~1 MPa
same,crosslinked fraction,[8]; 0.2% H2O2 in PBS,100%
same,monomer content,"[8]; absence of H2O2, PBS",> 96%
same,duration cells remained viable (positive calcein staining),[9],at least ten days
